Test results published in PMC10825657.

Substrate: Cc1c(CC(=O)NCCCC[C@H](NC(=O)CCN)C(=O)O)c(=O)oc2cc(N)ccc12
Experiment: cells, lysate or membranes
Conditions: HBSS with 20 mM Hepes, 300 mOsmol/kg (control); fluorescent substrate 0-500 μM

B1: PepT2 (Oreochromis mossambicus) (protein)
chain: MGKKLFGTNYPVSICFIVVNEFCERFSYYGMKALLTLYFLNYLKWDKDLSTAVYHAFSGLCYFTPILGAFIADSWLGKYKTIIYLSIVYVIGHVVKSVGAIPTVGSTELHIALSMSGLILIALGTGGIKPCVAAFGGDQFGEEHITERQKFFSIFYMSINAGSFLSTIITPILRGDVQCFGGDCYALAFGVPAALMVVALVVFIAGSSLYKRTPPQGNILWEVCNCIGFALKNRWNKSKHDSPRQHWLDWAEEKYSMRLIQEIKMVLRVLVLYIPLPMFWALFDQQGSRWTLQATRMNLAFGNSFAIKPDQMQMLNALLILVFVPIFDLIIYPLVRLCGLKITPLRKMAVGMVFAALAFGAATLVEVNVVKTVVNPAPAGKCLLQVVNLAKGDVSLKAPGTDLFLQSIKYLEDPPGYETVPLSNGELNLEVTGVNGETFSATQKVEEKKAYSVIIYPDAAGITYTLVEDHITKNEDGNPLLRFLNTQPEALNVTVGDKNFYMSSGYNVTHNKTVQRGEYTHATCISNSGKTSKLNLGLLDFGACYTVILTEEAGEIVPHKIEDVKANNVHIAYQIPQYILITAGEVMFSITGLEFSYSQAPANMKSVLQAGWLLTVAFGNVIVLIVAEGAGLEQWIEFLLFACLLLGVCIIFSIMAHFYTYVDPEEMEKLYLENSVKEEDDSDFKKKNNEIQLNKTGKSTRM
B1 was tested, and the Km was 178.78 ± 19.78 µM.
